This note sets out measurements from paper PMC2852419, “Identification of SOX9 Interaction Sites in the Genome of Chondrocytes”.

The target in the data set is SOX9 (Homo sapiens, UniProt P48436 1-509). As to the kind of experiment: EMSA; EMSA with recombinant human SOX9 and 32P probes as in cited ref 67; buffer, salt, pH and temperature not given. To be noted: protein: recombinant; chain copies: 2; label: 32P-dCTP Klenow fill-in.
SOX9, sequence (P48436 whole entry): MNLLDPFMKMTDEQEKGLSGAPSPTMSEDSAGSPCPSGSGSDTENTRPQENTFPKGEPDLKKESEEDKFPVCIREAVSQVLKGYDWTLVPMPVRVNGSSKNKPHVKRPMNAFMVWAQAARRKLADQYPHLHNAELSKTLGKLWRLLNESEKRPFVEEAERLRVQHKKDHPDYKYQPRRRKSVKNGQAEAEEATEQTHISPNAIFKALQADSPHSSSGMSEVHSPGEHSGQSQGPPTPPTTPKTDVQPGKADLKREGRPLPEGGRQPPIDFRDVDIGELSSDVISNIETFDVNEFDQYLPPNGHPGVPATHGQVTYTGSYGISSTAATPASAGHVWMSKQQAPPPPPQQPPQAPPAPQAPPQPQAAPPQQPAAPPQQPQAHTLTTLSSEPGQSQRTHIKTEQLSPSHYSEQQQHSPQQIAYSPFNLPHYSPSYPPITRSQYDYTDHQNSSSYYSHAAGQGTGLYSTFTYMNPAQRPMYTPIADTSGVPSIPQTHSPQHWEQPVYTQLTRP

B1: Col2a1 intron 6 (human) (dsDNA)
DNA 1: GGCAGGTAACTGAGGACTTTCTTTATAGAATCCCAG
DNA 2: CTGGGATTCTATAAAGAAAGTCCTCAGTTACCTGCC
As for B1, the binding result is recorded as “binds”.

B2: Col2a1 intron 6 mutant (dsDNA)
DNA 1: GGCAGATAGCTGTTTTCCTTTTCGACAGAAACCCAG
DNA 2: CTGGGTTTCTGTCGAAAAGGAAAACAGCTATCTGCC
On to B2, for which the binding result was “no binding”.
